Measurements taken from the supplement of paper PMC9732359.
± gives the uncertainty stated by the source.

Experiment: protein stability index of a GFP-peptide fusion (yeast GPS) (PSI 1-4); higher = more stable; sorted into four equal gates, so the index is relative within each strain
Outline: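 Tiled 17-residue peptides from yeast proteins were fused downstream of GFP on a plasmid that also expresses Cherry, and the pooled library was carried in yeast. Mid-log cultures grown in leucine-free medium were sorted into four equal gates by GFP/Cherry fluorescence ratio. Plasmids from each gate were PCR-amplified and Illumina-sequenced, and reads were assigned to strains by barcodes. Each peptide's protein stability index is the sum, over gates, of the gate's read frequency multiplied by its gate number.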

Row | Sequence | protein stability index (doa10∆) | protein stability index (pdr5∆) | protein stability index (san1∆) | protein stability index (ubr1∆)
1 | TKYSAKYAQDGAGIERE [RPL3] | 3.04 ± 0.15 | 3.48 ± 0.22 | 3.24 ± 0.27 | 3.19 ± 0.15
2 | GKTSFFQALGVPTKIAR [RPP0] | 3.24 ± 0.1 | 3.29 ± 0.091 | 2.98 ± 0.11 | 3.26 ± 0.071
3 | MAGLSFDNYQRNNFLAE [PUP1] | 3.61 ± 0.17 | 3.58 ± 0.1 | 3.29 ± 0.084 | 3.39 ± 0.092
4 | NSNDSVFVGSGKGTGKT [BRR2] | 3.36 ± 0.14 | 3.27 ± 0.16 | 3.32 ± 0.1 | 3.33 ± 0.11
5 | EHIIRDVHNGYILRYLH [COB] | 2.35 ± 0.23 | 1.7 ± 0.13 | 1.39 ± 0.16 | 2 ± 0.11
6 | KNINIGKHSQEQNSSSA [SIR4] | 3 ± 0.072 | 3.13 ± 0.082 | 3.29 ± 0.1 | 3.25 ± 0.057
7 | VSTEGNVPQTLAPVPYE [RPL21A] | 3.19 ± 0.072 | 3.02 ± 0.085 | 3.11 ± 0.05 | 3.05 ± 0.068
8 | TNEEVRNMAEEFEYDDE [CYT1] | 2.92 ± 0.14 | 2.3 ± 0.077 | 2.49 ± 0.098 | 2.2 ± 0.041
9 | LITPAVRNTAPNIRELG [YCG1] | 2.57 ± 0.18 | 2.76 ± 0.15 | 2.68 ± 0.28 | 3.09 ± 0.093
10 | APKGSTDPKELYNNAHV [RPC40] | 2.92 ± 0.14 | 2.96 ± 0.082 | 2.68 ± 0.11 | 3.21 ± 0.062
11 | KAPKIQRLVTPQRLQRK [RPS6A] | 2.77 ± 0.06 | 2.95 ± 0.049 | 2.91 ± 0.042 | 2.94 ± 0.039
12 | SKLDIYTQQQALEYIGA [RET1] | 1.94 ± 0.12 | 2.23 ± 0.1 | 2.59 ± 0.12 | 1.89 ± 0.13
13 | LNLPLQFSLPNGDNSTT [SNF12] | 2.48 ± 0.047 | 1.99 ± 0.043 | 2.283 ± 0.013 | 2.08 ± 0.038
14 | IPGEYITYALSGYVRSR [RPS21B] | 2.42 ± 0.059 | 2.73 ± 0.095 | 2.39 ± 0.093 | 2.77 ± 0.047
15 | LFGNKPTTTTGGLFGNS [YGR119C/NUP57] | 2.94 ± 0.1 | 2.79 ± 0.13 | 2.85 ± 0.18 | 3.19 ± 0.055
16 | GGSSDTADKIRIHAKNF [GAL11] | 1.67 ± 0.066 | 1.86 ± 0.061 | 1.42 ± 0.072 | 1.68 ± 0.054
17 | SYTFRSEKGLLSATQFT [FAS1] | 2.67 ± 0.052 | 2.65 ± 0.046 | 2.84 ± 0.045 | 2.78 ± 0.036
18 | TAETGYIQRRLVKALED [RPO21] | 2.31 ± 0.073 | 2.74 ± 0.074 | 2.69 ± 0.076 | 2.74 ± 0.072
19 | KQFFQMTPLLVNCLELL [PCI8] | 1.4 ± 0.034 | 1.32 ± 0.034 | 1.26 ± 0.067 | 1.23 ± 0.025
20 | HKHREARGLTATGKKSR [RPL15A] | 3.58 ± 0.2 | 3.37 ± 0.15 | 3.31 ± 0.069 | 3.15 ± 0.068
21 | GQSINDSLKKLLPQWDD [ARP9] | 2.88 ± 0.047 | 2.86 ± 0.044 | 2.74 ± 0.045 | 2.88 ± 0.04
22 | MKYAVSKTSENKVSNTV [SIR2] | 2.99 ± 0.13 | 3.16 ± 0.062 | 3.15 ± 0.091 | 2.98 ± 0.052
23 | PFGVSTIFGGVDKNGAH [PRE10] | 3.06 ± 0.076 | 2.98 ± 0.069 | 2.73 ± 0.12 | 2.97 ± 0.049
24 | QMSLEANVVDITNDWEQ [YJR042W/NUP85] | 2.65 ± 0.077 | 2.77 ± 0.064 | 2.92 ± 0.058 | 2.87 ± 0.058
25 | TVTDDARIFEFPKTTVA [RPL18A] | 2.68 ± 0.056 | 2.7 ± 0.048 | 2.7 ± 0.061 | 2.42 ± 0.057
26 | YHGISKNDNIKKSVNKL [POP6] | 2.7 ± 0.064 | 2.75 ± 0.049 | 2.77 ± 0.05 | 2.85 ± 0.046
